Series [1] addresses PABPC1 full-length (His);Paip2 (Paip2a) full-length (human?;human?, UniProt P11940;Q9BPZ3 1-636;1-127, |). Briefly: EMSA. For orientation: A gel shift assay detects complexes by their altered migration in electrophoresis.
A further series has as its target PABPC1 RRM23 (98-293) (UniProt P11940-1 98-293). Briefly: native gel or EMSA.
In the next series the target is PABPC1 (1-372) (UniProt P11940-1 1-372). Nature of the series: native gel or EMSA.
For series [2], the target named is T1, Poly(A) binding protein cytoplasmic 1 (PABPC1), full-length recombinant, His-tagged (UniProt P11940-1 1-636). Nature of the series: SEC-MALS.
Series [3] addresses T1, Poly(A) binding protein cytoplasmic 1 …. Briefly: SEC-MALS. The source holds these as a separate data set.

Where two headings read alike, the source gives them in different places.

T1 sequence (P11940 whole entry): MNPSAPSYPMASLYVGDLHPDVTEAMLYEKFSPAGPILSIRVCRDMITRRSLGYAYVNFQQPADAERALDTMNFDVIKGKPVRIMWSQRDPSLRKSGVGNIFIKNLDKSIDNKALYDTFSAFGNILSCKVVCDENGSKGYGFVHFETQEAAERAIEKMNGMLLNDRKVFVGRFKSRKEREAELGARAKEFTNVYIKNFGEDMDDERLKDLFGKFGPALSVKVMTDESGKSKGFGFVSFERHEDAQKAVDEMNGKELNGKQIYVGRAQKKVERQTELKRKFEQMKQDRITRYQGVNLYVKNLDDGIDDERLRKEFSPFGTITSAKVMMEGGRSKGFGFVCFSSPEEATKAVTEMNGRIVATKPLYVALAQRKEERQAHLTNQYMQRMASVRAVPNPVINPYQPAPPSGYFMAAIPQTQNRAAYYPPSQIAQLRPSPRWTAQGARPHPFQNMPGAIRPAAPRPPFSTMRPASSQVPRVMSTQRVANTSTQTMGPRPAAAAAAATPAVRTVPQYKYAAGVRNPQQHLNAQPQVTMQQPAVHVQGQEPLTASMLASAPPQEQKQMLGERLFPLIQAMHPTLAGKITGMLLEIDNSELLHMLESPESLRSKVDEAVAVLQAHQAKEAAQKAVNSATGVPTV
Sequence of PABPC1 (1-372) (P11940 1-372): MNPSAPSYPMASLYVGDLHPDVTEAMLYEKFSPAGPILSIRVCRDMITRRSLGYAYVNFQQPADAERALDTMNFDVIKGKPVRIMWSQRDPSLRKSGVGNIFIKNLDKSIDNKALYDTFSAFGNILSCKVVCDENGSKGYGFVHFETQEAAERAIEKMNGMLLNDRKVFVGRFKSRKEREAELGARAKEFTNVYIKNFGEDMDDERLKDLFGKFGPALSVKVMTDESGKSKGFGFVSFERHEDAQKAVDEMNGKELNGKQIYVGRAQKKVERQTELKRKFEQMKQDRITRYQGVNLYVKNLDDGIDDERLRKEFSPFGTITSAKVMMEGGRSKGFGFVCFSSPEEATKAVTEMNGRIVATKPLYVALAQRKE
Sequence of PABPC1 full-length (His);Paip2 (Paip2a) full-length (P11940 whole entry, one chain of several): as the sequence (P11940 whole entry) above
Sequence of PABPC1 RRM23 (98-293) (P11940 98-293): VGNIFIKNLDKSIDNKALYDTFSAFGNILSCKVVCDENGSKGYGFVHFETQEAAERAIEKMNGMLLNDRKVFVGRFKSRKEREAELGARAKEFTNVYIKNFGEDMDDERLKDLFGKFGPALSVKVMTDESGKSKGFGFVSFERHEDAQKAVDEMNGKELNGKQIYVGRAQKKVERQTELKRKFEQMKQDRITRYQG

B1: r(A)25 (ssRNA)
RNA: AAAAAAAAAAAAAAAAAAAAAAAAA
Turning to B1, the binding result in series [1] is given as “binds”.

B2: Paip2 (22-75) (domain or fragment, UniProt Q9BPZ3 22-75, looked up)
chain: GHSHEDDNPFAEYMWMENEEEFNRQIEEELWEEEFIERCFQEMLEEEEEHEWFI
B2: the binding result with PABPC1 RRM23 (98-293) and in the series with PABPC1 (1-372) was “binds” in each case.

B3: PABPC1-interacting protein 2 (Paip2), full-length recombinant (natural protein, UniProt Q9BPZ3 1-127, looked up)
chain: MKDPSRSSTSPSIINEDVIINGHSHEDDNPFAEYMWMENEEEFNRQIEEELWEEEFIERCFQEMLEEEEEHEWFIPARDLPQTMDQIQDQFNDLVISDGSSLEDLVVKSNLNPNAKEFVPGVKYGNI
In general, stoichiometry N refers to a count of units in the complex or per binding partner. Take B3: the figures for the “stoichiometry N” value in series [2] and in series [3] were 2 Paip2 per PABPC1 and 1 Paip2 per PABPC1, respectively.
